In publication PMC1888729, “Control of Pre-mRNA Splicing by the General Splicing Factors PUF60 and U2AF^65” (PLoS ONE, 2007):

B1: PUF60 (endogenous, heparin fraction of HeLa nuclear extract) (natural protein, human (endogenous in HeLa), UniProt Q9UHX1 1-559, looked up)
chain: MATATIALQVNGQQGGGSEPAAAAAVVAAGDKWKPPQGTDSIKMENGQSTAAKLGLPPLTPEQQEALQKAKKYAMEQSIKSVLVKQTIAHQQQQLTNLQMAAVTMGFGDPLSPLQSMAAQRQRALAIMCRVYVGSIYYELGEDTIRQAFAPFGPIKSIDMSWDSVTMKHKGFAFVEYEVPEAAQLALEQMNSVMLGGRNIKVGRPSNIGQAQPIIDQLAEEARAFNRIYVASVHQDLSDDDIKSVFEAFGKIKSCTLARDPTTGKHKGYGFIEYEKAQSSQDAVSSMNLFDLGGQYLRVGKAVTPPMPLLTPATPGGLPPAAAVAAAAATAKITAQEAVAGAAVLGTLGTPGLVSPALTLAQPLGTLPQAVMAAQAPGVITGVTPARPPIPVTIPSVGVVNPILASPPTLGLLEPKKEKEEEELFPESERPEMLSEQEHMSISGSSARHMVMQKLLRKQESTVMVLRNMVDPKDIDDDLEGEVTEECGKFGAVNRVIIYQEKQGEEEDAEIIVKIFVEFSIASETHKAIQALNGRWFAGRKVVAEVYDQERFDNSDLSA
notes: PUF60 of HeLa nuclear extract; Seen as a monomer and as an SDS-resistant dimer; also called FIR; RoBP1; source: endogenous, HeLa nuclear extract, fractionated (20-40% ammonium sulfate, CsCl gradient, Poros heparin column)
B2: His-tagged PUF60 (PUF60S, HEK-293E) (natural protein, human, UniProt Q9UHX1-2 1-542, looked up)
chain: MATATIALQVNGQQGGGSEPAAAAAVVAAGDKWKPPQGTDSIKMENGQSTAAKLGLPPLTPEQQEALQKAKKYAMEQSIKSVLVKQTIAHQQQQLTNLQMAAQRQRALAIMCRVYVGSIYYELGEDTIRQAFAPFGPIKSIDMSWDSVTMKHKGFAFVEYEVPEAAQLALEQMNSVMLGGRNIKVGRPSNIGQAQPIIDQLAEEARAFNRIYVASVHQDLSDDDIKSVFEAFGKIKSCTLARDPTTGKHKGYGFIEYEKAQSSQDAVSSMNLFDLGGQYLRVGKAVTPPMPLLTPATPGGLPPAAAVAAAAATAKITAQEAVAGAAVLGTLGTPGLVSPALTLAQPLGTLPQAVMAAQAPGVITGVTPARPPIPVTIPSVGVVNPILASPPTLGLLEPKKEKEEEELFPESERPEMLSEQEHMSISGSSARHMVMQKLLRKQESTVMVLRNMVDPKDIDDDLEGEVTEECGKFGAVNRVIIYQEKQGEEEDAEIIVKIFVEFSIASETHKAIQALNGRWFAGRKVVAEVYDQERFDNSDLSA
notes: PUF60S, the isoform of human PUF60 that lacks alternative exon 5; amplified from pGAD-GH-RoBPI-47,3 with the primers PUF60Hisstart and PUFresmutD; About 60% of the protein ran as an SDS-resistant dimer; also called recombinant PUF60; PUFS; source: HEK-293E, transiently transfected with pTT3-HisPUFS, purified (Ni-NTA agarose)

Key:
[1] = target: the molecule itself; assay: SDS-PAGE and western blot; heparin fraction of HeLa nuclear extract, blot probed for PUF60
[2] = target: the molecule itself; assay: SDS-PAGE and western blot; His-tagged PUF60 (~3.6 pmol) purified from HEK-293E cells, blot probed for PUF60

| Protein | stoichiometry N [1] | stoichiometry N [2] |
| --- | --- | --- |
| B1 | 2 |  |
| B2 |  | 2 |
